Test results reported in patent US9890400B2, “Method of production of 2,4-dihydroxybutyric acid” (ADISSEO FRANCE S.A.S., priority 2012, dated 2018).

System: CC(C)(COP(=O)(O)OP(=O)(O)OC[C@H]1O[C@@H](n2cnc3c(N)ncnc32)[C@H](O)[C@@H]1OP(=O)(O)O)[C@@H](O)C(=O)NCCC(=O)NCCSC(=O)CCC(=O)O
Test: Malyl-CoA reductase activity, reductive sense (Assay 1)
Format: biochemical, Porphyromonas gingivalis W83
Conditions: other: reductive sense, succinyl-CoA added directly, NADPH, pH 7.5, 37° C.
Procedure: NCBI references of the utilized mcr and sucD protein sequences, and the references for the corresponding natural and synthetic DNA sequences are listed in Table 2.
Expression and purification of Pg-SucD was carried out as described in Example 1 using plasmid pET28-Pgi-sucD.
Malyl-CoA reductase activity was assayed in the reductive and in the oxidative sense of the reaction employing Assay 1 or Assay 2, respectively.
Assay 1 (Reaction Scheme): glyoxylate+acetyl-CoA→malyl-CoA+acetate Malyl-CoA lyase: (L)-Malyl-CoA+NADPH→(L)-Malate semialdehyde+Coenzyme A+NADP Malyl-CoA reductase: Assay 2 (Reaction Scheme): (L)-Malate semialdehyde+Coenzyme A+NADP→(L)-Malyl-CoA+NADPH The reaction mixture according to Assay 1 contained 50 mM MOPS/KOH (pH 7.5), […], and appropriate amounts of purified malyl-CoA reductase or cell extract. Reactions were started by adding glyoxylate. Enzymatic assays were carried out at 37° C. in 96-well flat bottomed microtiter plates in a final volume of 250 μL. The reactions were followed by the characteristic absorption of NADPH at 340 nm (εNADPH=6.22 mM^−1 cm^−1) in a microplate reader (BioRad 680XR).

“Porphyromonas gingivalis succinyl-CoA reductase (Pg-SucD), wild type, SEQ ID No. 10 (Porphyromonas gingivalis W83)” gave a Km of 1 mM and a Vmax of 1 µmol/min/mg.
